Patent publication US20180155451A1 (published 2018)

What was measured:
[1] = biological target: T1, FcγRIIIa extracellular domain with C-terminal His tag (human, UniProt P08637 17-208); experiment: SPR (Biacore), antibody captured, FcγR as analyte; He Ab binding / GpH7-A5/GpH7-B3/GpL16-k0 binding x 100
T1 construct: extracellular domain; also called FcgRIIIa; 3a; not shown: His tag at the C terminus
Description: (§1) The heterodimerized antibodies He Abs in which one of the H chains was introduced with an alteration were assayed for their binding activities to each activating FcγR and inhibitory FcγR according to the method described in Example 4. […] The activating FcγRs in FIGS. 26, 27, 28, and 29 are FcγRIa, FcγRIIa (R), FcγRIIa (H), and FcγRIIIa, respectively.
(§2) Analysis of interaction between objective antibody and the FcγR was carried out using Biacore T100 (GE Healthcare). HBS-EP+ (GE Healthcare) was used as the running buffer, and the measurement temperature was set to 25° C. Chips produced by immobilizing the antigen peptide by the amine coupling method to a Series S Sencor Chip CM5 (GE Healthcare), or alternatively, chips produced by allowing preliminarily biotinylated antigen peptides to interact with and immobilize onto a Series S Sensor Chip SA (certified) (GE Healthcare) were used. Antibodies of interest were captured onto an antigen peptide-immobilized chip, and allowed to interact to each FcγR diluted with running buffer. To regenerate and repeatedly use the chip, the antibodies captured on the chip were washed off by reacting 10 mM glycine-HCl, pH 1.5.

[2] = biological target: T1, FcγRIIIa extracellular domain with …; experiment: SPR (Biacore); ratio of He/Con_3a (FcγRIIIa) to He/Con_2b (FcγRIIb)
Description: as §1, §2

[3] = biological target: T2, FcγRIIIa extracellular domain with C-terminal His tag (human, UniProt P08637 17-208); experiment: SPR (Biacore); He/Con_3a divided by He/Con_2b (reference: binding to FcγRIIb)
T2 construct: extracellular domain; also called FcgRIIIa; 3a; not shown: His tag attached to the C terminus
Description: as §2
(§3) The FcγR-binding activity of each antibody was assessed primarily using as an indicator the FcγR-binding activity and dissociation constant for FcγR.

[4] = biological target: T2, FcγRIIIa extracellular domain with …; experiment: SPR (Biacore), relative binding
Description: as §2, §3

[5] = biological target: T3, FcγRIIb extracellular domain with C-terminal His tag (human, UniProt P31994 43-217); experiment: SPR (Biacore), relative binding
T3 construct: extracellular domain; also called FcgRIIb; 2b; not shown: His tag attached to the C terminus
T3 sequence (looked up): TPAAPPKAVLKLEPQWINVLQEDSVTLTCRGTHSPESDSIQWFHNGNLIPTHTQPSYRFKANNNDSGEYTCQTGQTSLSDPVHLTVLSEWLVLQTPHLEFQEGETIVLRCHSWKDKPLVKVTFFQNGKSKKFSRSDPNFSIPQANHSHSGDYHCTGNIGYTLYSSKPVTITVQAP
Description: as §2, §3

[6] = biological target: T4, FcγRIIb, extracellular domain with C-terminal His tag (human, UniProt P31994 43-217); experiment: Biacore SPR; binding relative to GpH7-A5/GpH7-B3/GpL16-k0 (=100)
T4 construct: extracellular domain; soluble receptor used as Biacore analyte; also called 2b; FcgRIIb
T4 sequence (looked up): T3 sequence (looked up)
Description: as §1, §2

[7] = biological target: T5, FcγRIIa R (FcγRIIa, allotype R, Arg at position 131), extracellular domain with C-terminal His tag (human, UniProt P12318 34-217); experiment: as above
T5 construct: extracellular domain; soluble receptor used as Biacore analyte; also called 2aR; FcgRIIa R
T5 sequence (looked up): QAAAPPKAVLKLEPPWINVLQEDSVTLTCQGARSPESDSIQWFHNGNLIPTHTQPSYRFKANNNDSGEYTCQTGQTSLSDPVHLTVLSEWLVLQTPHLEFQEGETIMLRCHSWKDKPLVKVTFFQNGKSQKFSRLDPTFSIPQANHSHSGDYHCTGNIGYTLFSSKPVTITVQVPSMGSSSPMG
Description: as §1, §2

[8] = biological target: T6, FcγRIIb (human, UniProt P31994 43-217); experiment: SPR (Biacore), antibody captured on antigen peptide, FcγR as analyte; relative to GpH7-A5/GpH7-B3/GpL16-k0 = 100
T6 construct: extracellular domain; Soluble extracellular domain with C-terminal His tag, used as analyte in Biacore; also called FcgRIIb; 2b; not shown: His tag attached to the C terminus
T6 sequence (looked up): T3 sequence (looked up)

[9] = biological target: T7, FcγRIa (human, UniProt P12314 16-292); experiment: as above
T7 construct: extracellular domain; Soluble extracellular domain with C-terminal His tag, used as analyte in Biacore; also called FcgRI; 1a; not shown: His tag attached to the C terminus
T7 sequence (P12314 16-292): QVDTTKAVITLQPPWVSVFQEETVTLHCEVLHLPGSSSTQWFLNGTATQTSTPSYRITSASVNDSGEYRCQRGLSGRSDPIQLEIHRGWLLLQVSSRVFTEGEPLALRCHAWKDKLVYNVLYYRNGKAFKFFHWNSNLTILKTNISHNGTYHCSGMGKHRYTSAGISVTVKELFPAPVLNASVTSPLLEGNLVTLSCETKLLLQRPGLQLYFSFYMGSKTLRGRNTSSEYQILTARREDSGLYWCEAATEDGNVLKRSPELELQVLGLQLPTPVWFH

B1: GpH7-A5/GpH7-B3 variant A327_12R/GpL16-k0 (antibody, human IgG1, kappa)
heavy 1: not shown
heavy 2: not shown
light: DIVMTQSPLSLPVTPGEPASISCQASESLVHSNRNTYLHWYLQKPGQSPQLLIYKVSNRFSGVPDRFSGSGSGTDFTLKISRVEAEDVGVYYCSQNTHVPPTFGQGTKVEIERTVAAPSVFIFPPSDEQLKSGTASVVCLLNNFYPREAKVQWKVDNALQSGNSQESVTEQDSKDSTYSLSSTLTLSKADYEKHKVYACEVTHQGLSSPVTKSFNRGEC
notes: position is EU numbering; also called He Ab
In the case of B1, the “He/Con_3a (IIIa binding)” value [1] is reported as 19.3 relative, control = 100 and the “He_3a/2b (IIIa/IIb)” value [2] is reported as 2.15 ratio.

B2: GpH7-A5/GpH7-B3 variant N325_01G/GpL16-k0 (antibody, human IgG1, kappa)
heavy 1: not shown
heavy 2: not shown
light: B1 light
notes: Heterodimerized IgG1; alteration in one H chain only; also called He Ab
With B2 the “He_3a/2b (IIIa/IIb)” value [3] was 0.28 ratio, the “He/Con_3a (IIIa binding)” value [4] was 28 % of GpH7-A5/GpH7-B3/GpL16-k0 (=100) and the “He/Con_2b (IIb binding)” value [5] was 101 % of GpH7-A5/GpH7-B3/GpL16-k0 (=100).

B3: heterodimerized antibody GpH7-A5/GpH7-B3 variant S267_11K/GpL16-k0 (antibody, human IgG1, kappa)
heavy 1: not shown
heavy 2: not shown
light: B1 light
notes: He Ab: anti-glypican-3 IgG1, alteration in one H chain only; also called He Ab
For B3, the “He/Con_2b (IIb binding)” value [6] was 12.2 % of control.

B4: heterodimerized antibody GpH7-A5/GpH7-B3 variant S239_03V/GpL16-k0 (antibody, human IgG1, kappa)
heavy 1: not shown
heavy 2: not shown
light: B1 light
notes: as for B3
In the case of B4, the “He/Con_2b (IIb binding)” value [6] is reported as 108 % of control and the “He/Con_2aR (IIaR binding)” value [7] is reported as 99.9 % of control.

B5: heterodimerized antibody GpH7-A5/GpH7-B3 variant Y300_19Q/GpL16-k0 (antibody, human IgG1, kappa)
heavy 1: not shown
heavy 2: not shown
light: B1 light
notes: as for B3
In the case of B5, the “He/Con_2b (IIb binding)” value [6] is reported as 108 % of control and the “He/Con_2aR (IIaR binding)” value [7] is reported as 99.7 % of control.

B6: GpH7-A5/GpH7-B3 variant N325_04F/GpL16-k0 (antibody, human IgG1, kappa)
heavy 1: not shown
heavy 2: not shown
light: B1 light
notes: Heterodimerized IgG1; mutation in the GpH7-B3 H chain only; also called He Ab
With B6 the He/Con_2b [8] was 143 % of control and the He/Con_1a [9] was 93.2 % of control.

B7: GpH7-A5/GpH7-B3 variant L328_11K/GpL16-k0 (antibody, human IgG1, kappa)
heavy 1: not shown
heavy 2: not shown
light: B1 light
notes: as for B1
For B7, the “He/Con_3a (IIIa binding)” value [1] was 33.5 relative, control = 100 and the “He_3a/2b (IIIa/IIb)” value [2] was 4.46 ratio.

B8: GpH7-A5/GpH7-B3 variant S298_05P/GpL16-k0 (antibody, human IgG1, kappa)
heavy 1: not shown
heavy 2: not shown
light: B1 light
notes: as for B2
In the case of B8, the “He/Con_2b (IIb binding)” value [5] is reported as 11.9 % of GpH7-A5/GpH7-B3/GpL16-k0 (=100).

B9: GpH7-A5/GpH7-B3 variant N325_08L/GpL16-k0 (antibody, human IgG1, kappa)
heavy 1: not shown
heavy 2: not shown
light: B1 light
notes: as for B6
With B9 the He/Con_2b [8] was 197 % of control and the He/Con_1a [9] was 97.5 % of control.

B10: GpH7-A5/GpH7-B3 variant A327_07I/GpL16-k0 (antibody, human IgG1, kappa)
heavy 1: not shown
heavy 2: not shown
light: B1 light
notes: as for B2
In the case of B10, the “He_3a/2b (IIIa/IIb)” value [3] is reported as 0.33 ratio, the “He/Con_3a (IIIa binding)” value [4] is reported as 42.4 % of GpH7-A5/GpH7-B3/GpL16-k0 (=100) and the “He/Con_2b (IIb binding)” value [5] is reported as 127 % of GpH7-A5/GpH7-B3/GpL16-k0 (=100).

B11: GpH7-A5/GpH7-B3 variant S239_06M/GpL16-k0 (antibody, human IgG1, kappa)
heavy 1: not shown
heavy 2: not shown
light: B1 light
notes: as for B6
With B11 the He/Con_2b [8] was 101 % of control and the He/Con_1a [9] was 99 % of control.

B12: GpH7-A5/GpH7-B3 variant P238_19Q/GpL16-k0 (antibody, human IgG1, kappa)
heavy 1: not shown
heavy 2: not shown
light: B1 light
notes: as for B6
For B12, the He/Con_2b [8] was 110 % of control and the He/Con_1a [9] was 97.6 % of control.

B13: heterodimerized antibody GpH7-A5/GpH7-B3 variant S267_12R/GpL16-k0 (antibody, human IgG1, kappa)
heavy 1: not shown
heavy 2: not shown
light: B1 light
notes: as for B3
B13 was tested, and the “He/Con_2b (IIb binding)” value [6] was 11.3 % of control.

B14: GpH7-A5/GpH7-B3 variant N325_03V/GpL16-k0 (antibody, human IgG1, kappa)
heavy 1: not shown
heavy 2: not shown
light: B1 light
notes: as for B6
B14 was tested, and the He/Con_2b [8] was 111 % of control and the He/Con_1a [9] was 95.6 % of control.

B15: GpH7-A5/GpH7-B3 variant A327_09D/GpL16-k0 (antibody, human IgG1, kappa)
heavy 1: not shown
heavy 2: not shown
light: B1 light
notes: as for B2
With B15 the “He_3a/2b (IIIa/IIb)” value [3] was 0.49 ratio, the “He/Con_3a (IIIa binding)” value [4] was 83.7 % of GpH7-A5/GpH7-B3/GpL16-k0 (=100) and the “He/Con_2b (IIb binding)” value [5] was 172 % of GpH7-A5/GpH7-B3/GpL16-k0 (=100).

B16: GpH7-A5/GpH7-B3 variant P238_16H/GpL16-k0 (antibody, human IgG1, kappa)
heavy 1: not shown
heavy 2: not shown
light: B1 light
notes: as for B6
For B16, the He/Con_2b [8] was 115 % of control and the He/Con_1a [9] was 96 % of control.
